According to publication doi:10.1101/2025.03.07.642083:

Target: T1, ToAubZL (Aureochrome1 bZIP+LOV) (Thalassiosira oceanica, UniProt K0SY93 276-520)
T1 sequence: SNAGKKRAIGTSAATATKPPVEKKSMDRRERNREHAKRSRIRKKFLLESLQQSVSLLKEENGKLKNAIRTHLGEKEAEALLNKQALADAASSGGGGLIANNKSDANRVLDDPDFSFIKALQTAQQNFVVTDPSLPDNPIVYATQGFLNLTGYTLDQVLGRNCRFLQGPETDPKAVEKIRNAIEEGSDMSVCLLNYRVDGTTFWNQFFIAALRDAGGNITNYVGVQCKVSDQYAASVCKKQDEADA
Assay: EMSA

B1: Aureo-box substrate DNA (dsDNA)
DNA 1: TGTAGCGTCTGACGTGGTTCCCAC
DNA 2: GTGGGAACCACGTCAGACGCTACA
Does B1 bind?
Result: binds
